# Like-named read-outs stand apart in the source and are kept apart here.
# B1: antibody 573S (antibody, V domains shown)
# VH: EVQLVESGGGLVKPGGSLRLSCAASGFTFSSYTMNWVRQAPGKGLEWVSCIRSSSSDKYYADSVKGRFTISRDNTKNSLYLQMNSLRADDTAVYYCARDLGGANNRYYFDYGMDVWGQGTTVTVSS
# VL: EIVMTQSPATLSVSPGGRATLSCRASQSVYTNLAWYQQKPGQAPRLLIYDASTRATGIPARFSGSGSGTEFTLTISSLQCEDFAVYYCQHYNNWPLYTFGQGTKLEIK
# B2: antibody 541S (antibody, V domains shown)
# VH: QVQLVQSGAEVKKPGASVKVSCKASGYTFTNYAITWVRQAPGQGLEWMGWISAFNGQINYAQKFQGRVAMTTDTSTSTAYMELRSLRSDDTAVYYCARAPPMWFSGAKFDYWGQGTLVTVSS
# VL: QSVLTQPPSVSGTPGQRVTISCSGSSSNIGSNTVNWYQQLPGTAPKLLIYSNDQRPSGVPDRFSGSKSGTSASLAISGLRSEDEADYYCAAWDETLRRVFGGGTRLTVL
# B3: antibody 294S (antibody, V domains shown)
# VH: QVQLQESGPGLVKPSQTLSLTCTVSGGSISSGGYHWSWIRQHPGKGLEWIGNIYYNGRTYYNPSLKSRVTISVDTSENEFSLKLSSVTAADTAVYYCARDRRRPRIGHDYGMDVWGQGTKVIVSS
# VL: DIQMTQSPSSLSASVGDRVTISCRASQSISNFLNWYQQKPGQAPKLLIYTASNLQSGVPSRFSGSGSGTDFTLTISSLQPEDFATYYCQQIYNTGMYSFGQGTKLEIKR
# B4: antibody 241S (antibody, V domains shown)
# VH: QVQLVQSGSELKKPGASVKVSCKASGYTFTSYTVNWVRQAPGQGLEWMGWINTNTGNPTYAQGFTGRFVFSSDTSVSTAYLQISDLKAEDTAMYYCARHVAYDLWSGHTVTFDHWGQGTLVTVSS
# VL: QSALTQPPSASGSPGQSVTISCTGTSSDVGAYNYVSWYQQHPGKAPKLIIYEVTKRPSGVPDRFSGSKSGNTASLTVSGLQAEDEADYYCSSKAGGKTYVFGTGTKVTVL
# B5: antibody 354S (antibody, V domains shown)
# VH: QVQLVQSGAEVKKPGASVKVSCKASGYSFASYYIHWVRQAPGQGLEWMGIINPSGGTTSYAQKFQGRVTMTRDTSTSTVYMELSSLGSEDTAVYYCARIVDRVTIYLNGVDNYWGQGTLVTVSS
# VL: EIVMTQSPATLSVSPGERVTLSCRASQSVSSNLAWFQQTPGQAPRLLIYGASTRASGVPARFSGSGSGTEFTLTISSLQSEDFAVYYCLQYNNWPPGWKYGFGQGTKLEIK
# B6: antibody 233S (antibody, V domains shown)
# VH: EVQLVESGGGLGQPGGSLRLSCAASGFKFKIFGMNWVRQAPGKGLEWVSYISSRSSIIYYADSVKGRFTISRDDATNSLFLQMNSLRDEDTAMYYCVRDYNLIDFVWGSLFDYWGQGILVTVSS
# VL: AIRMTQSPSSLSASTGDSVTITCRASQNIASYLAWYQQIPGKAPKLLIYVASTLQSGVPSRFSGSGSGTDFTLTISSLQSEDFATYYCQQYYRYPPTFGQGTKVEIK
# B7: antibody 503S (antibody, V domains shown)
# VH: QVQLVQSGAEVKKPGASVRVSCKASGYTFTSYYMHWVRQAPGQGLEWMGQINPSGGTTRYERKFQGRITVTRDTSTSTVYLELSSLRSEDTASYFCACLRDKVTYYDLWSGVDSVWGQGTLVTVSS
# VL: DIQMTQSPSSLSASVGDRVTITCRASQDISTWLAWYQQKPEKAPKSLIYAASTLETGVPSRFSGSGSGTDFTLTISSLQPEDFATYYCEQYNGFPRTFGQGTKLDIK
# B8: antibody 382S (antibody, V domains shown)
# VH: QVQLVQSGAEVKKPGSSVKVSCKASGGTFSNYGISWVRQAPGQGLEWMGRNIPIIGIANYAQKFQDRVTITADKSTSTVFMELRSLRYEDTAVYYCARDPLAARRGNWFDPWGQGTLVTVSS
# VL: DIQMTQSPSTLSASVGDRVTITCRASQSVSSWLAWYQQKPGKAPKLLIYDASTLQSGVPSRFSGSGSGTEFTLTISSLQPDDFATYYCQQYNSYSYTFGQGTKLEIK
# B9: antibody 365S (antibody, V domains shown)
# VH: EVQLVESGGGLVQPGGSLRLSCAASGLTFSAYEMNWVRQAPGKGLEWVSHITTSGSAIYYADSVKGRFTISRDNAKNSLHLQMNRLRADDTAVYFCARDSTIVQCSGTSCHVSTYSYMDVWGKGTTVTVSS
# VL: EIVLTQSPATLSLSPGERATLSCRASQSVTTYLAWYQHKPGQAPRLLIYDASKRATGIPARFSGSGSGTDFTLTISSLEPEDFAVYHCQQRSSWPPITFGQGTRLEIK
# B10: antibody 405S (antibody, V domains shown)
# VH: EVQLVESGGGLIQPGGSLRLSCAASGFTVSSHYMSWVRQAPGKGLEWVSGIYSGGRTHYADSVKGRFTISRDNSKNTLYLQMNSLRADDTAVYSCARGTLLYLYGMDVWGQGTTVTVSS
# VL: QSVLTQPPSVSAAPGQRVTISCTGSSSNIGAGYNVHWYQQLPGAAPKLLIYGNTNRPSGVPDRFSGSKSGTSASLAITGLQAEDEADYYCQSFDSSLSGVFGTGTKVTVL
# B11: antibody 102S (antibody, V domains shown)
# VH: EVQLVESGGGLVQPGGSLRLSCSASGFTFHSYDMNWARQAPGKGLEWVSEISSSGQSKNYADSVRGRFTISRDNAKNSLYLQINSLRSEDTAVYYCARVGFVAKFGSDFSITHGTYYLDYWGQGTLVTVSS
# VL: QLVLTQSPATLSLSPGERATLSCRASQSVSNYLAWYQQKPGQAPRLLIYDASNRAPGVPARFSGSGSGTDFSLTISSLEPEDFAVYYCLQRSNWPPWTFGQGTKVEIK
# B12: antibody 578S (antibody, V domains shown)
# VH: EVQLVESGGGVVQPGRSLRLSCAASGFTFSSYELHWVRQAPGKGLEWVAVISYDGSSKYYADSLKGRFTISRDNSKNTLSLQMNSLRAEDTAMYYCVRQSEAYCSDGRCDWRRALDIWGQGTMVTVSP
# VL: DIQMTQSPSSLSASVGDRVTITCQASQDIKNYLNWYQQKPGKAPKLLIYDVSKLETGVPSRFSGSGSGTDFSFTISSLQPEDIATYYCQQYDNLPSYTFGQGTKLEIK
# B13: antibody 523S (antibody, V domains shown)
# VH: QVQLVQSGAELKKPGASVKVSCKASGYTFSDHYVHWVRQAPGQGLEWMGRINPNSGGTNYAQRFLGRVTMTRDASISTAYLDLSSLRSDDTAVYYCARSSSSWSGHYYYYMDVWGKGTTVTVSS
# VL: QSVLTQPPSVSAAPGQRVTISCSGSTSNIASNFVSWYQQLPGTAPKLLIYDNHKRPSGIPDRFSGSKSGTSATLGITGLQTGDEADYYCGTWDSSLSAGVFGGGTKVTVLG
# What was measured:
# [1] = molecular target: T1, full-length Sudan GP (GPFL) (Sudan virus (SUDV), UniProt Q7T9D9 33-650); assay: ELISA on coated GP
# T1 construct: also called Sudan GPFL; GP(S)FL
# T1 sequence: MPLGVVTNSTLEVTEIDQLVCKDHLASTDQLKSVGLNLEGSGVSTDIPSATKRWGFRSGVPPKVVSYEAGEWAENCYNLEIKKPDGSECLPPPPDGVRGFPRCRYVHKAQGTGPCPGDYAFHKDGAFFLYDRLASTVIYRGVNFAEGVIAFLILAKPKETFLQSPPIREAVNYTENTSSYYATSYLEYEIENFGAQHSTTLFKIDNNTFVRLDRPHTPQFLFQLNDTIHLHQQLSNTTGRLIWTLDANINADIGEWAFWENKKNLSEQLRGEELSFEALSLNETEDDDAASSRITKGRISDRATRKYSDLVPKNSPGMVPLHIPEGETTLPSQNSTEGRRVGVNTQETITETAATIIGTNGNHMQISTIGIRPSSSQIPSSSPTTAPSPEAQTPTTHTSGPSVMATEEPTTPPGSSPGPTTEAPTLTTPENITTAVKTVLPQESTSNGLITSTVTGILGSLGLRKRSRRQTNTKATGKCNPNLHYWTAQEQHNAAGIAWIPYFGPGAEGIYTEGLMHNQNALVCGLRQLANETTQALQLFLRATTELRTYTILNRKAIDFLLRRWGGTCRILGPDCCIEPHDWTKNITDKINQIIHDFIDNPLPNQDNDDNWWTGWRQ
# [2] = molecular target: T2, SUDV GP on pseudotyped lentiviral vector (Sudan virus (SUDV), UniProt Q7T9D9 33-676); assay: cell-based or functional assay
# T2 sequence: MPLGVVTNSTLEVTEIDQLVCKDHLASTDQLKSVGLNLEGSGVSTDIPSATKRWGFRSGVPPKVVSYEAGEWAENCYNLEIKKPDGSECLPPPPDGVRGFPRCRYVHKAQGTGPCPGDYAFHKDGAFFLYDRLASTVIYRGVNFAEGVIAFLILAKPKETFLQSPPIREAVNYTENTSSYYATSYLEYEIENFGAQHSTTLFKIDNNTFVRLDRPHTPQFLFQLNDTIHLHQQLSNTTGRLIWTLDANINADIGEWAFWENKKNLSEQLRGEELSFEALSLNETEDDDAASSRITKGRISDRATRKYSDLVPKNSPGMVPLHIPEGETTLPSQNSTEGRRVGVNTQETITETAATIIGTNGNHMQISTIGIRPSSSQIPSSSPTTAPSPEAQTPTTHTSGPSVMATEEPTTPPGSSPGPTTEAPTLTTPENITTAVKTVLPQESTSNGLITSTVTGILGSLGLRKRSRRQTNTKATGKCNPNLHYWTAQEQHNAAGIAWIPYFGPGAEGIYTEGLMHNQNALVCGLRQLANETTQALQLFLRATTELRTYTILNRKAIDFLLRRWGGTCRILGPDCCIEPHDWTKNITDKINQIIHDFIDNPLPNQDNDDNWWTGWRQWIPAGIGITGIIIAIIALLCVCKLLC
# [3] = molecular target: T1, full-length Sudan GP (GPFL); assay: ELISA on coated GP; remark: listed apart in the source
# [4] = molecular target: T2, SUDV GP on pseudotyped lentiviral vector; assay: cell-based or functional assay; remark: listed apart in the source
Binder,EC50 [1],"IC50, microneutralization of GP-pseudotyped lentiviral vector on HEK293 cells [2]",EC50 [3],"IC50, microneutralization of GP-pseudotyped lentiviral vector on HEK293 cells [4]"
B1,0.221 µg/mL,0.188 µg/mL,,
B2,0.368 µg/mL,0.478 µg/mL,,
B3,0.0258 µg/mL,0.0192 µg/mL,,
B4,0.232 µg/mL,0.0275 µg/mL,,
B5,0.0613 µg/mL,0.03 µg/mL,,
B6,0.133 µg/mL,0.167 µg/mL,,
B7,0.64 µg/mL,0.102 µg/mL,,
B8,,,0.35 µg/mL,0.71 µg/mL
B9,,,0.11 µg/mL,0.79 µg/mL
B10,,,0.06 µg/mL,0.79 µg/mL
B11,,,0.09 µg/mL,0.88 µg/mL
B12,,,0.18 µg/mL,1.09 µg/mL
B13,0.371 µg/mL,0.108 µg/mL,,

# Reference: US20260209316A1 (US Dept. of Health and Human Services, published 2026)
